Laboratory results taken from PMC10815899 (2024).

How the values were obtained:
[1] = target: T1, epithelial adhesin 6 of N. glabratus (N. glabratus (endogenous), UniProt Q6FX55 1-715); experiment: BLI
T1 chain: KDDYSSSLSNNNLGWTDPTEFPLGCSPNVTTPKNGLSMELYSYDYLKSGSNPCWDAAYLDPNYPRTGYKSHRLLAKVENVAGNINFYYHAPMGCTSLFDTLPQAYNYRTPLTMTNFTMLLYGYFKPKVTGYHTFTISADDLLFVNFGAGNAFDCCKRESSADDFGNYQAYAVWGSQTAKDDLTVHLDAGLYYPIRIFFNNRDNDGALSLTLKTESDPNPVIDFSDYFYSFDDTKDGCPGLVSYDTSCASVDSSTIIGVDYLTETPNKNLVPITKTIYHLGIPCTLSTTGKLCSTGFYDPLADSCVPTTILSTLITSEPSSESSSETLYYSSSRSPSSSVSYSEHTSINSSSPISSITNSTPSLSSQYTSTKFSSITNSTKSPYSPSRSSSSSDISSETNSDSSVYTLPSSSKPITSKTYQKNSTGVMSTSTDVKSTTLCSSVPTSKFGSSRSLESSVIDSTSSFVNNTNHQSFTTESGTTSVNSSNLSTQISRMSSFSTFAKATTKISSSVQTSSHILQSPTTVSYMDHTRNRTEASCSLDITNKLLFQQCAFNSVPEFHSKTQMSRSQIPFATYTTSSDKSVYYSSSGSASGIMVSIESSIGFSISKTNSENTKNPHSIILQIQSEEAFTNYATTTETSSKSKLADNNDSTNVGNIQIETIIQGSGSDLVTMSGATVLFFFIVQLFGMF

[2] = target: T1, epithelial adhesin 6 of N. glabratus; experiment: BLI
[3] = target: T1, epithelial adhesin 6 of N. glabratus; experiment: SPR

B1: cytoplasmic Nakaseomyces glabratus glyceraldehyde 3-phosphate dehydrogenase (enzyme)
chain: MVRIAINGFGRIGRLVLRVALSRSNIEVVAVNDPFITTDYAAYMFKYDSTHGRYAGEVTHDDKHIIIDGKKIAVHQERDPANLPWGSENIDIAIDSTGVFKELDTAQKHIDAGAKKVVITAPSSTAPMFVVGVNEDKYTSDLKIVSNASCTTNCLAPLAKVIDEAFGIEEGLMTTVHSLTATQKTVDGPSHKDWRGGRTASGNIIPSSTGAAKAVGKVLPQLQGKLTGMAFRVPTVDVSVVDLTVKLQKETTYDEIKKVIKQASEGKLKGVLGYTEDAVVSSDFLGDSRSSIFDASAGIQLSPKFVKLVSWYDNEYGYSTRVVDLVEHVAKN
modifications: biotin (NHS-biotin) in the microplate ligand-binding assays
With B1 the koff [1] was 0.00195 s⁻¹, the Kd [2] was 6.89 nM and the koff [3] was 0.000209 s⁻¹.
